Reference: publication PMC1236978

Molecular target: T1, HutP (V51I) (Bacillus subtilis, UniProt P10943 1-148, V51I)
T1 sequence: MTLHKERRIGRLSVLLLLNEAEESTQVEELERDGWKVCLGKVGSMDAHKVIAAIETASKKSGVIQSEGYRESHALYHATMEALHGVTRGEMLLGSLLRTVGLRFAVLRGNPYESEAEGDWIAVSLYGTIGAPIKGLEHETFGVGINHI
Experiment: EMSA

CAUAGAUCUUAGACGAUAGGG (ssRNA) [21mer hut RNA (minimal RNA element)]: binds.
